Measured values published in publication PMC4124035 (Nature structural & molecular biology, 2014).
Read-outs that look alike come from different tables or passages of the source.

Assays:
[1] = system: RPAP2; assay: Phosphatase assay with pNPP substrate; assay type: biochemical, human; details: unpublished data
[2] = system: RPAP2 (1-334); assay: In vitro DiFMUP phosphatase assay; assay type: biochemical, human; details: 10 μM DiFMUP, 50 mM 3,3-dimethylglutaric acid pH 6.5, 37°C, fluorescence every 20 min for 2 hours
[3] = biological target: RPRD1B CTD interaction domain (CID), residues 2-135 (human) (UniProt Q9NQG5); assay: ITC
[4] = biological target: RPRD1A CTD interaction domain (CID), residues 2-137 (human) (UniProt Q96P16); assay: ITC
[5] = biological target: RPRD2 CTD interaction domain (CID), residues 15-161 (human) (UniProt Q5VT52); assay: ITC
[6] = biological target: RPRD1B coiled-coil domain (human) (UniProt Q9NQG5); assay: AUC
[7] = biological target: RPRD1B coiled-coil domain (human) (UniProt Q9NQG5); assay: AUC; remark: listed apart in the source
[8] = biological target: RPRD1B coiled-coil domain (solution experiments) (human) (UniProt Q9NQG5); assay: AUC
[9] = system: RPAP2; assay: In vitro phosphatase ELISA on biotinylated CTD peptides; assay type: biochemical, human; details: Supplementary Fig. 4d
[10] = biological target: T1, RPRD2 CID (Homo sapiens, UniProt Q5VT52); assay: ITC binding of CTD peptides to RPRD2 CID; details: ratio of Kd values of Table 1
T1 sequence (Q5VT52 15-161): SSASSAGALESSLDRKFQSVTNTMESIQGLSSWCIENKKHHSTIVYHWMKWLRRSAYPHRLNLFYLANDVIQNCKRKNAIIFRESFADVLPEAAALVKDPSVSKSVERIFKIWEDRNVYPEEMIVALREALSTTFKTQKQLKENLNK

[11] = biological target: T2, RPRD1B CID (Homo sapiens, UniProt Q9NQG5); assay: ITC binding of CTD peptides to RPRD1B CID; details: ratio of Kd values of Table 1
T2 sequence (Q9NQG5 2-135): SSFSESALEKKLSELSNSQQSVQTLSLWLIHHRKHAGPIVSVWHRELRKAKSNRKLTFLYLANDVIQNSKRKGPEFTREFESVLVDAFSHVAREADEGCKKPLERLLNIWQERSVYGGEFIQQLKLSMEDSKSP

[12] = biological target: T3, RPRD1A CID (Homo sapiens, UniProt Q96P16); assay: ITC binding of CTD peptides to RPRD1A CID; details: ratio of Kd values of Table 1
T3 sequence (Q96P16 2-137): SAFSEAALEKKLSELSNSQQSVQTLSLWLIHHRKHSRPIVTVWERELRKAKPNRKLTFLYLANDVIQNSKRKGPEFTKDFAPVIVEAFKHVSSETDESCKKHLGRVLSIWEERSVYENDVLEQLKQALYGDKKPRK

[13] = biological target: T4, RPRD1A CID R106A (human, UniProt Q96P16 2-137, R106A); assay: ITC
T4 sequence: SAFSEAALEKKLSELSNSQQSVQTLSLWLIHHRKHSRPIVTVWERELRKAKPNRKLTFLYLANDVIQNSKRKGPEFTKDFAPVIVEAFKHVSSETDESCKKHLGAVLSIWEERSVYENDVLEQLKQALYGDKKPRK

## O=[N+]([O-])c1ccc(OP(=O)(O)O)cc1 [pNPP, para-nitrophenylphosphate]
[1]
  phosphatase activity of RPAP2 on the substrate: No measurable phosphatase activity

## Cc1cc(=O)oc2c(F)c(OP(=O)(O)O)c(F)cc12 [DiFMUP, 6,8-difluoro-4-methylumbelliferyl phosphate]
[2]
  dephosphorylation of the substrate by RPAP2 (1-334): dephosphorylated DiFMUP in a time- and dose-dependent manner

## S2,5P CTD peptide
[3]
  Kd: > 1000 µM
[4]
  Kd: > 1000 µM
[5]
  Kd: > 1000 µM

## RPRD1B coiled-coil domain (from UniProt Q9NQG5 137-326) (domain or fragment)
[6]
  stoichiometry N: 2
[7]
  stoichiometry N: 2

## RPRD1B coiled-coil domain (solution experiments) (from UniProt Q9NQG5 137-326) (domain or fragment)
[8]
  percent dimer: 89.6%

## S2,7P CTD peptide
[3]
  fold increase of affinity compared to S2P alone: 2.6 fold
[4]
  fold increase of affinity compared to S2P alone: 1.6 fold

## [O]=[V]([O-])([O-])[O-] [vanadate]
[9]
  inhibition of RPRD1A-dependent S5 dephosphorylation by RPAP2: inhibited

## S5P CTD peptide
[3]
  Kd: > 1000 µM
[4]
  Kd: > 1000 µM
[5]
  Kd: > 1000 µM

## S5,7P CTD peptide
[3]
  Kd: > 1000 µM
[4]
  Kd: > 1000 µM
[5]
  Kd: > 1000 µM

## C[C@@H](O)[C@H](NC(=O)[C@@H]1CCCN1C(=O)[C@H](COP(=O)(O)O)NC(=O)[C@H](Cc1ccc(O)cc1)NC(=O)[C@H](COP(=O)(O)O)NC(=O)[C@@H]1CCCN1C(=O)[C@H](CO)NC(=O)[C@@H](NC(=O)[C@@H]1CCCN1C(=O)[C@H](COP(=O)(O)O)NC(=O)[C@H](Cc1ccc(O)cc1)NC(=O)[C@H](CO)NC(=O)[C@@H]1CCCN1C(=O)[C@@H](N)CO)[C@@H](C)O)C(=O)N[C@@H](CO)C(=O)N1CCC[C@H]1C(=O)N[C@@H](COP(=O)(O)O)C(=O)N[C@@H](Cc1ccc(O)cc1)C(=O)N[C@@H](CO)C(=O)O [S2,7P CTD]
[10]
  fold increase of RPRD2 CID affinity compared to S2P CTD: remained unchanged
[11]
  fold increase of RPRD1B CID affinity compared to S2P CTD: 2.6 fold
[12]
  fold increase of RPRD1A CID affinity compared to S2P CTD: 1.6 fold

## SPSYSPTSPSYSPTSPSYS [19-mer S2P CTD peptide]
[13]
  fold reduction of binding against wild type: ~27 fold
